In IntAct's records for PubMed 12591280:

B1: Actin nucleation-promoting factor WAS (Homo sapiens), P42768 (parent)
chain: MSGGPMGGRPGGRGAPAVQQNIPSTLLQDHENQRLFEMLGRKCLTLATAVVQLYLALPPGAEHWTKEHCGAVCFVKDNPQKSYFIRLYGLQAGRLLWEQELYSQLVYSTPTPFFHTFAGDDCQAGLNFADEDEAQAFRALVQEKIQKRNQRQSGDRRQLPPPPTPANEERRGGLPPLPLHPGGDQGGPPVGPLSLGLATVDIQNPDITSSRYRGLPAPGPSPADKKRSGKKKISKADIGAPSGFKHVSHVGWDPQNGFDVNNLDPDLRSLFSRAGISEAQLTDAETSKLIYDFIEDQGGLEAVRQEMRRQEPLPPPPPPSRGGNQLPRPPIVGGNKGRSGPLPPVPLGIAPPPPTPRGPPPPGRGGPPPPPPPATGRSGPLPPPPPGAGGPPMPPPPPPPPPPPSSGNGPAPPPLPPALVPAGGLAPGGGRGALLDQIRQGIQLNKTPGAPESSALQPPPQSSEGLVGALMHVMQKRSRAIHSSDEGEDQAGDEDEDDEWDD

Key:
[1] = variants of: B1; conditions: with wipf1_human WIPF1, O43516
Chain of wipf1_human WIPF1, O43516 (O43516 whole entry): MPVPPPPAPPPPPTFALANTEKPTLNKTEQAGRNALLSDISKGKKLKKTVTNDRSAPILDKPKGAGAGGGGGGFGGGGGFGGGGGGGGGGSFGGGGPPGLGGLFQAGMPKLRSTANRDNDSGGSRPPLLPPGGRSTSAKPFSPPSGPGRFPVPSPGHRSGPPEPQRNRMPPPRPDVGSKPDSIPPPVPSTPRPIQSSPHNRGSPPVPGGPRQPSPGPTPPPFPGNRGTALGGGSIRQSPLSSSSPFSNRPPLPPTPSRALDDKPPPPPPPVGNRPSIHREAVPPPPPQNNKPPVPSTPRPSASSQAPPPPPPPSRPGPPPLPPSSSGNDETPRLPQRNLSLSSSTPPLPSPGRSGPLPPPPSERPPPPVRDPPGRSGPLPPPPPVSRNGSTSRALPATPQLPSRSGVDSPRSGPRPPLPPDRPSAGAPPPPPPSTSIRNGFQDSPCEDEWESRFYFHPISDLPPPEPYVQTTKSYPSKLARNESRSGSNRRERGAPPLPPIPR

[2] = variants of: B1; conditions: with wipf1_human WIPF1, O43516; remark: listed apart in the source

| Variant | effect of a mutation on the interaction [1] | effect of a mutation on the interaction [2] |
| --- | --- | --- |
| A134T | disrupting interaction strength |  |
| R138A | with no effect | increasing interaction strength |
| R138P | disrupting interaction strength | decreasing interaction strength |
| R138E | with no effect | increasing interaction strength |
